Data published in patent US9278119B2, “Treatment of prostate cancer and a method for determining the prognosis for prostate cancer patients” (WNTRESEARCH AB, priority 2011, dated 2016).
Where no end group is shown, it is not given here. The star is where a group is joined. For = O=C*

Assays:
DU145 cells = assay: Matrigel invasion assay, DU145 cells; type: cell-based, human; conditions: 24 h
Procedure: (§1) Four human PCa cell lines LNCaP, 22Rv1, PC-3, and DU145 were purchased from American Type Culture Collection [ATCC] (Manassas, Va.). The immortalized PNT2 normal human prostate epithelial cells (cat No. 95012613) were obtained from European Collection of Cell Cultures (ECACC), (Sigma-Aldrich, St. Louis, Mo.). LNCaP, 22Rv1, DU145 and PNT2 cells lines were cultured in RPMI-1640 medium, supplemented with 10% fetal bovine serum (FBS) and 1% pest (penicillin and streptomycin). PC-3 cells were grown in Hyclone Ham's F12 medium supplemented with 10% FBS and 1% pest. All in vitro experiments were performed when cells were ˜70% confluent. For invasion assay experiments cells were grown in serum free medium (SFM) for 24 hours. RPMI-1640 medium (R0883), FBS (F6178), penicillin streptomycin (P0781) were purchased from Sigma-Aldrich, whereas Ham's F12 medium (SH30026.01) was obtained from Thermo-Scientific (Waltham, Mass.). All cell lines were regularly tested for the absence of mycoplasma infection.
(§2) Cell invasion capacities were measured in a standard commercial invasion assay. In this study the inventors used BD BioCoat™ Matrigel™ Invasion Chambers (BD Biosciences, Bedford, Mass.) in accordance with the manufacturer's protocol. […] Invaded cells were counted either in an 460 inverted microscope or in Olympus BX51 Fluorescence Microscope (Olympus optical Co. Ltd, Japan).

22Rv1 cells = assay: Matrigel invasion assay, 22Rv1 cells; type: cell-based, human; conditions: 24 h
Procedure: as §1, §2

LNCaP cells = assay: Matrigel invasion assay, LNCaP cells; type: cell-based, human; conditions: rWnt5a 0.4 μg/ml, 24 h, vs vehicle; FIG. 3B
Procedure: as §1, §2

PC3 cells [1] = assay: Matrigel invasion assay, PC3 cells; type: cell-based, human; conditions: rWnt5a 0.4 μg/ml, 24 h, vs vehicle; FIG. 3B
Procedure: as §1, §2

PC3 cells [2] = conditions: addition of rWnt5a to PC3 cells; report by Wang et al [26]; cited from earlier work

## formylated derivative of MDGCEL (SEQ. ID. NO. 2) (For-MDGCEL; listed as Homo sapiens) [Foxy-5, the N-formylated hexapeptide Foxy5, Wnt5a derived peptide]
DU145 cells; Foxy-5 100 microM, FIG. 6B
  relative invasion: significantly inhibited the invasion
22Rv1 cells; Foxy-5 100 microM, FIG. 6A
  relative invasion: significantly inhibited the invasion

B1: rWnt5a: recombinant Wnt5a protein (rWnt5a, R&D Systems, Minneapolis, Minn.) (protein, UniProt P41221 62-380, looked up)
Protein Wnt-5a: IIGAQPLCSQLAGLSQGQKKLCHLYQDHMQYIGEGAKTGIKECQYQFRHRRWNCSTVDNTSVFGRVMQIGSRETAFTYAVSAAGVVNAMSRACREGELSTCGCSRAARPKDLPRDWLWGGCGDNIDYGYRFAKEFVDARERERIHAKGSYESARILMNLHNNEAGRRTVYNLADVACKCHGVSGSCSLKTCWLQLADFRKVGDALKEKYDSAAAMRLNSRGKLVQVNSRFNSPTTQDLVYIDPSPDYCVRNESTGSLGTQGRLCNKTSEGMDGCELMCCGRGYDQFKTVQTERCHCKFHWCCYVKCKKCTEIVDQFVCK
DU145 cells; rWnt5a 0.4 μg/ml, vs vehicle, p<0.0001, FIG. 3B
  relative invasion: decreased the invasive behavior
LNCaP cells
  relative invasion: Neither the LNCaP nor the PC3 cells did respond
PC3 cells [1]
  relative invasion: Neither the LNCaP nor the PC3 cells did respond
22Rv1 cells; rWnt5a 0.4 μg/ml, vs vehicle, p=0.0001, FIG. 3B
  relative invasion: decreased the invasive behavior
PC3 cells [2]
  response in migration wound scratch assay: did not respond
